Paper PMC4051647, “Two Adjacent and Similar TetR Family Transcriptional Regulator Genes, SAV577 and SAV576, Co-Regulate Avermectin Production in Streptomyces avermitilis”

T1: His6-SAV577 (Streptomyces avermitilis ATCC31267?) (UniProt Q82QD3)
T1 sequence: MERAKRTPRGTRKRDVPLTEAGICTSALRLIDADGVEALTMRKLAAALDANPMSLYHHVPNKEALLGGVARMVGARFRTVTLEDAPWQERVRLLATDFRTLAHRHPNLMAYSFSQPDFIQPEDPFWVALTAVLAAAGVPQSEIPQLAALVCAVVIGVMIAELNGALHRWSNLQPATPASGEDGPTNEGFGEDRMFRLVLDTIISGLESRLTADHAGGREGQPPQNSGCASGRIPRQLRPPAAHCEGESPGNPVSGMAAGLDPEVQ

T2: His6-SAV577 (UniProt Q82QD3 1-265)
T2 sequence: T1 sequence

B1: probe 2 (dsDNA)
DNA 1: CCCAGGTCTGCCGATTGAGTTTCCATACGTCGTATGGTACTAC
DNA 2: GTAGTACCATACGACGTATGGAAACTCAATCGGCAGACCTGGG
B2: probe 6 (dsDNA)
DNA 1: AGTCGCCATACGCTGTACGGTACCAGCGCCCGCGGCACTGCGG
DNA 2: CCGCAGTGCCGCGGGCGCTGGTACCGTACAGCGTATGGCGACT

biological target: T1, His6-SAV577 (Streptomyces avermitilis ATCC31267?); test: EMSA; conditions: EMSA: Roche DIG Gel Shift kit binding buffer, 1 ug poly[d(I-C)] per 20 ul, 25 C 30 min, 5% native PAGE 0.5x TBE; footprinting: 20 mM HEPES pH 7.6, 10 mM …

Row | Molecule | binding
1 | ATATGCCCTGCCGAGGAGACCCTGGCGAACCCGCCTTGCCCGCTCTCGCGGACTGATACCGGCCTGATCGAGCGCGGCATGGAGACGTACGGGCGCCGCCGCGAGGCGGCACACGCGCCTGCTTCTCCGGCGCTGCCGTCAGTCGCCGACGCGCATGGGTGCAGACCCGACCTCCGCGATGCGTACTGGCGGGCAGGGGGATTGGCTGCTCACCGGGATGTAGCCGCGGCCGCCGTCGCGGATCGTGGGTGTCCTCC (double strand) [probe 4] | no binding
2 | GAAACTCAATCGGCAGACCTGGGGTCGAGAAACAGGAACGTTTCGGCCCATCAGGGACGGCGTCGCTCACGCAGCGGGGTCGCATCAGGATCAGGCGCTGCCGAACGCTCTCCCGGCTGGAGGAGGCGAGGGGAGACCGGTCGCCGCCAGCCGGCGGCTCGACCGGGCCACCGGTGGGTGCGCCCCGGGGAGGACACCCACGATCCGCGACGGCGGCCGCGGCTACATCCCGGTGAGCAGCCAATCCCCCTGCCCGCCAGTACGCATCGCGGAGGT (double strand) [probe 3] | no binding
3 | GAAGGCATACAGCGTATGGAAACGGGGCGCTGCCGTACCGGCGCCCCGTCACACCGAATGGCGCCCTGCCCGCCTTTCCCCTTGGAGGAGCCAGCCAT (double strand) [probe 1] | binds more weakly
4 | GCTCTCGGAATTGTTCGTTCCCTCGCACTACACGTTCGAGATCGGAACGTGAAGACCAGCACGCTCCAGCCCGTTCGGATGCCGTACGTAGTCCGCCATGGCCAAGGGAATGAGCCCCACTCAGGCAGCGCCCTCGTACTCGTCCACGACCAGATGCTTGGACAGCAGCGCCTGAACCGCGTCCGGCGGAAAGTATCAGTGGACGAACG (double strand) [probe 577p] | no binding
5 | GGTATTCCATTCGGTGTTGCAGCACGCGACCCACTGCGCATCCCACTCGTGAATTGTGGACCGCCATCCGGGGCACGGATGTCTCCAGGAAGGAACTCCTTCACCCTCGCGAACACCACCTCAGAATCCCACGATCATCAGTTAATCATCAAAGTCAGCGACCTTGACACTACCCCGCCCACCAGGGCAAATTCATAACA (double strand) [probe 7] | no binding

biological target: T2, His6-SAV577; test: EMSA; 0.3 nM probe; EMSA: Roche DIG Gel Shift kit binding buffer, 1 ug poly[d(I-C)] per 20 ul, 25 C 30 min, 5% native PAGE 0.5x TBE; footprinting: 20 mM HEPES pH 7.6, 10 mM (NH4)2SO4, 1 mM DTT, 0.2% Tween-20, 30 mM KCl, 25 C binding; conditions: protein: recombinant; tags: N-terminal His6; chain copies: 2; label: DIG 3'-end; blunt

Row | Molecule | binding result
6 | B1 | binds
7 | B2 | binds
